One assay deals with HLA-A*03:01. The experiment in a line: IEDB peptide-MHC binding, purified MHC/direct/fluorescence; filed as Kd, often an IC50 or EC50 that approximates it; ≥ and ≤ were set here for values at or beyond the usual limits of such assays.
The target of assay [1] is HLA-A*02:03. The description is as above.
The target in the next assay is HLA-A*02:01. The description is as above.
The target of another assay is HLA-A*02:19. Described as above.
A further assay concerns the target HLA-A*26:01. The assay is described as above.
In another assay the target is HLA-B*46:01. Described as above.
A further assay concerns the target HLA-B*15:01. Described as above.
In the next assay the target is HLA-B*51:01. The assay is described as above.
The next assay deals with HLA-A*02:12. The description is as above.
In the next assay the target is HLA-B*57:01. The description is as above.
A further assay concerns the target HLA-B*27:03. Described as above.
The next assay addresses HLA-A*02:16. Described as above.
The target of another assay is HLA-B*18:01. The description is as above.
In assay [2] the target is HLA-B*48:01. The experiment in a line: IEDB peptide-MHC binding, purified MHC/competitive/fluorescence; filed as Kd, often an IC50 or EC50 that approximates it; ≥ and ≤ were set here for values at or beyond the usual limits of such assays.
A further assay has as its target HLA-B*39:01. The experiment in a line: IEDB peptide-MHC binding, purified MHC/direct/fluorescence; filed as Kd, often an IC50 or EC50 that approximates it; ≥ and ≤ were set here for values at or beyond the usual limits of such assays.
The target in the next assay is HLA-B*40:01. Described as above.
The target in another assay is HLA-A*01:01. Described as above.
Another assay concerns the target HLA-B*58:01. Described as above.
In a further assay the target is HLA-B*08:03. The assay is described as above. As to conditions: source organism: Influenza A virus(A/swine/Shandong/fZC/2003(H9N2)).
The target in another assay is HLA-B*07:02. The description is as above.
The target in a further assay is HLA-B*27:05. The description is as above.
The next assay concerns the target HLA-B*15:17. The assay is described as above.
Another assay addresses HLA-A*69:01. The description is as above.
The next assay concerns the target HLA-A*68:02. The assay is described as above.
For a further assay, the target named is HLA-A*30:01. The experiment in a line: IEDB peptide-MHC binding, purified MHC/competitive/fluorescence; filed as Kd, often an IC50 or EC50 that approximates it; ≥ and ≤ were set here for values at or beyond the usual limits of such assays. As to conditions: source organism: Influenza A virus (A/X-31(H3N2)).
For a further assay, the target named is HLA-A*24:03. The experiment in a line: IEDB peptide-MHC binding, purified MHC/direct/fluorescence; filed as Kd, often an IC50 or EC50 that approximates it; ≥ and ≤ were set here for values at or beyond the usual limits of such assays.
The next assay deals with HLA-A*02:11. Described as above.
The next assay concerns the target HLA-B*15:09. The description is as above. To be noted: source organism: Mycobacterium tuberculosis str. Haarlem.
In a further assay the target is HLA-A*31:01. The assay is described as above. As to conditions: source organism: Mycobacterium tuberculosis.
The target in a further assay is HLA-B*44:02. The assay is described as above. To be noted: source organism: Mycobacterium tuberculosis.
The next assay deals with HLA-B*08:01. The description is as above. To be noted: source organism: Mycobacterium tuberculosis str. Haarlem.
For a further assay, the target named is HLA-A*11:01. The assay is described as above. To be noted: source organism: Mycobacterium tuberculosis.
Assay [3] deals with HLA-B*48:01. The description is as above. To be noted: source organism: Mycobacterium tuberculosis.
Assay [4] has as its target HLA-A*02:03. The experiment in a line: IEDB peptide-MHC binding, purified MHC/competitive/fluorescence; filed as Kd, often an IC50 or EC50 that approximates it; ≥ and ≤ were set here for values at or beyond the usual limits of such assays. To be noted: source organism: Mycobacterium tuberculosis variant bovis BCG str. Pasteur 1173P2.
The next assay concerns the target HLA-A*29:02. The experiment in a line: IEDB peptide-MHC binding, purified MHC/direct/fluorescence; filed as Kd, often an IC50 or EC50 that approximates it; ≥ and ≤ were set here for values at or beyond the usual limits of such assays. As to conditions: source organism: Bacillus anthracis str. 'Ames Ancestor'.
[5] abbreviates: source organism: Vibrio vulnificus YJ016.
Where [6] appears, read: source organism: Influenza A virus (A/duck/Vietnam/15/2003(H5N1)).
Where [7] appears, read: source organism: Burkholderia mallei ATCC 23344.
[8] abbreviates: source organism: Mycobacterium tuberculosis.
[9] abbreviates: source organism: Mycobacterium tuberculosis str. Haarlem.
Setting [10] is: source organism: Bacillus anthracis str. 'Ames Ancestor'.
[11] abbreviates: source organism: Encephalitozoon cuniculi GB-M1.

This passage reports Kd results from the Immune Epitope Database (IEDB).

Take FPLWNTEKI: the Kd in the assay with HLA-A*03:01 (setting [5]), with HLA-A*02:03 [1] (setting [5]), with HLA-A*02:01 (setting [5]), with HLA-A*02:19 (setting [5]), in the assay with HLA-A*26:01 (setting [5]) and with HLA-B*46:01 (setting [5]) was not below 20 µM each time. For the same sequence, the Kd (usually the equilibrium constant for the complex coming apart) in the assay with HLA-B*15:01 (setting [5]) is not below 20 µM; with HLA-B*51:01 (setting [5]), 0.071 µM; with HLA-A*02:12 (setting [5]), not below 20 µM; in the assay with HLA-B*57:01 (setting [5]) it was not below 20 µM; with HLA-B*27:03 (setting [5]), not below 20 µM; in the assay with HLA-A*02:16 (setting [5]), not below 20 µM. This sequence displayed an equilibrium dissociation constant (Kd) with HLA-B*18:01 (setting [5]) not below 20 µM.

Sequence RQVWWKALL displayed a Kd with HLA-B*48:01 [2] (source organism: Vibrio cholerae MAK 757) of 0.0226 µM.

For SHEGEGIPL, the Kd was not below 20 µM with HLA-A*03:01 (setting [6]); 0.0995 µM in the assay with HLA-B*39:01 (setting [6]); not below 20 µM with HLA-B*40:01 (setting [6]); not below 20 µM with HLA-A*01:01 (setting [6]); not below 20 µM with HLA-A*02:01 (setting [6]); not below 20 µM in the assay with HLA-B*58:01 (setting [6]). Besides, the dissociation constant (Kd) with HLA-B*08:03, with HLA-B*07:02 (setting [6]), with HLA-A*26:01 (source organism: Influenza A virus(A/swine/Shandong/fZC/2003(H9N2))), with HLA-B*27:05 (setting [6]), in the assay with HLA-B*46:01 (setting [6]) and in the assay with HLA-B*15:01 (setting [6]) was not below 20 µM each time. Further, the Kd with HLA-B*15:17 (setting [6]), in the assay with HLA-A*69:01 (setting [6]), with HLA-B*57:01 (setting [6]), with HLA-A*68:02 (setting [6]), with HLA-B*18:01 (setting [6]) and with HLA-B*48:01 [2] (source organism: Influenza A virus (A/X-31(H3N2))) was not below 20 µM throughout. In the assay with HLA-A*30:01, this sequence returned a Kd not below 20 µM.

As to LVTGAGSGF, the dissociation constant (Kd) with HLA-A*24:03 (setting [7]), with HLA-A*03:01 (setting [7]), with HLA-A*02:03 [1] (setting [7]), with HLA-B*39:01 (setting [7]), in the assay with HLA-A*02:01 (setting [7]) and with HLA-A*02:19 (setting [7]) was not below 20 µM each time. For the same sequence, the Kd is not below 20 µM with HLA-A*26:01 (setting [7]); not below 20 µM with HLA-A*02:11 (setting [7]); not below 20 µM with HLA-B*46:01 (setting [7]); 0.148 µM in the assay with HLA-B*15:17 (setting [7]); not below 20 µM with HLA-A*69:01 (setting [7]); not below 20 µM with HLA-A*02:12 (setting [7]). Also, the Kd in the assay with HLA-B*57:01 (setting [7]), with HLA-A*68:02 (setting [7]), with HLA-B*27:03 (setting [7]), with HLA-A*02:16 (setting [7]) and with HLA-B*18:01 (setting [7]) was not below 20 µM throughout.

Turning to WEITYLGTT, the Kd with HLA-B*15:09, in the assay with HLA-A*03:01 (setting [8]), with HLA-A*31:01, with HLA-B*44:02, with HLA-B*08:01 and in the assay with HLA-A*11:01 was not below 20 µM each time. Moreover, the equilibrium dissociation constant (Kd) with HLA-B*39:01 (setting [9]) was not below 20 µM; in the assay with HLA-B*40:01 (setting [8]) it was 3.26 µM; with HLA-A*01:01 (setting [8]), not below 20 µM; with HLA-B*48:01 [3], not below 20 µM; with HLA-A*02:01 (setting [8]) it was not below 20 µM; with HLA-B*58:01 (setting [8]), not below 20 µM. Also, the Kd with HLA-B*07:02 (setting [8]) was not below 20 µM; in the assay with HLA-A*26:01 (setting [9]) it was not below 20 µM; with HLA-B*27:05 (setting [8]), not below 20 µM; with HLA-B*15:01 (setting [8]), not below 10 µM; with HLA-B*15:17 (setting [8]) it was not below 20 µM; with HLA-A*69:01 (setting [8]) it was not below 20 µM. The Kd with HLA-B*57:01 (setting [8]) was not below 20 µM; in the assay with HLA-A*68:02 (setting [8]), not below 20 µM; with HLA-B*18:01 (setting [8]), 0.297 µM; with HLA-A*02:03 [4], not below 20 µM.

As to TKAGMAQYL, the Kd with HLA-A*24:03 (setting [10]), with HLA-A*03:01 (setting [10]), with HLA-A*02:03 [1] (setting [10]), in the assay with HLA-A*02:01 (setting [10]), with HLA-A*02:19 (setting [10]) and in the assay with HLA-A*26:01 (setting [10]) was not below 20 µM throughout. The dissociation constant (Kd) with HLA-A*29:02, with HLA-A*02:11 (setting [10]), in the assay with HLA-B*46:01 (setting [10]), with HLA-B*15:01 (setting [10]), with HLA-B*51:01 (setting [10]) and with HLA-B*15:17 (setting [10]) was not below 20 µM throughout. The equilibrium dissociation constant (Kd) with HLA-A*69:01 (setting [10]), with HLA-A*02:12 (setting [10]), in the assay with HLA-B*57:01 (setting [10]), with HLA-B*27:03 (setting [10]), with HLA-A*02:16 (setting [10]) and with HLA-B*18:01 (setting [10]) was not below 20 µM each time.

Consider RNMSRIFPY, for which the Kd was not below 20 µM with HLA-A*03:01 (setting [11]); not below 20 µM with HLA-A*02:03 [1] (setting [11]); not below 20 µM in the assay with HLA-B*39:01 (setting [11]); not below 20 µM with HLA-A*02:19 (setting [11]); not below 20 µM in the assay with HLA-B*46:01 (setting [11]); 0.18 µM in the assay with HLA-B*15:17 (setting [11]). In addition, the equilibrium dissociation constant (Kd) with HLA-A*69:01 (setting [11]), with HLA-A*02:12 (setting [11]), with HLA-B*27:03 (setting [11]) and with HLA-A*02:16 (setting [11]) was not below 20 µM each time.
